Assay results: patent US20160264664A1 (Ablynx, published 2016)

T1: mouse P2X7 (mouse, UniProt Q9Z1M0 1-595)
T1 construct: on transfected CHO or Hek293 cells, or endogenous on Yac-1 cells; also called mP2X7; mouse purinoceptor P2X7
T1 sequence: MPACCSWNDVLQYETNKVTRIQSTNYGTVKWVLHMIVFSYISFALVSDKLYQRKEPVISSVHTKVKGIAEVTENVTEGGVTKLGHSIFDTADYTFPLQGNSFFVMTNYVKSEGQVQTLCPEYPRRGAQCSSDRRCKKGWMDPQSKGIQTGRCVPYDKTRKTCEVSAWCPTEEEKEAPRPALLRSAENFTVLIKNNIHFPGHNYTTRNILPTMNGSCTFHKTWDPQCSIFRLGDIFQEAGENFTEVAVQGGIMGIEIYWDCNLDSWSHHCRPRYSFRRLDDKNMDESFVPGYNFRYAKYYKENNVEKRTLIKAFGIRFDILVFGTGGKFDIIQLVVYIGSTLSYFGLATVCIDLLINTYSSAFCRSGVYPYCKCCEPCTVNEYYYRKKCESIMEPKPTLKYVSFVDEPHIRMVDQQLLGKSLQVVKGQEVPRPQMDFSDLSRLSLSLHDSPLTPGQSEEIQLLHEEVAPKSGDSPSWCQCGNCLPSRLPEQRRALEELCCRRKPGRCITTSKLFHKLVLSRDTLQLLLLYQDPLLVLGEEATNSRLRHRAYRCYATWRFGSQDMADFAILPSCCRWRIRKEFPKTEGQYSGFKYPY

T2: human P2X7 (human, UniProt Q99572 1-595)
T2 construct: on transfected Hek293 cells; also called hP2X7
T2 sequence: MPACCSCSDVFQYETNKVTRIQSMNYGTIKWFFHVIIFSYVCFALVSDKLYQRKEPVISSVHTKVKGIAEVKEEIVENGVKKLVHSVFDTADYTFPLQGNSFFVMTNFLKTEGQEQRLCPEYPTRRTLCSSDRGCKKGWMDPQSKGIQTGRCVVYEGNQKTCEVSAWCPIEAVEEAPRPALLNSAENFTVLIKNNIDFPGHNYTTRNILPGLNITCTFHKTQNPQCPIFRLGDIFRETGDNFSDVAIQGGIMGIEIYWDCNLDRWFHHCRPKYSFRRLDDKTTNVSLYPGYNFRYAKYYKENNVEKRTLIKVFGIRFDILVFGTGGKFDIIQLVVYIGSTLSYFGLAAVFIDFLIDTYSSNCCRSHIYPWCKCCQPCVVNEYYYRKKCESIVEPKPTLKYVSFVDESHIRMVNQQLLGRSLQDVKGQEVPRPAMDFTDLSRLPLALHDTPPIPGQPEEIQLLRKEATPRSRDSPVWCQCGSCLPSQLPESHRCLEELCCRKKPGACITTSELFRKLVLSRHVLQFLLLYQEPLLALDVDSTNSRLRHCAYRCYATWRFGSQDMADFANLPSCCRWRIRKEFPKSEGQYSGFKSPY

T3: human P2X4 (human, UniProt Q99571 1-388)
T3 construct: whole, on cells; also called hP2X4
T3 sequence (looked up): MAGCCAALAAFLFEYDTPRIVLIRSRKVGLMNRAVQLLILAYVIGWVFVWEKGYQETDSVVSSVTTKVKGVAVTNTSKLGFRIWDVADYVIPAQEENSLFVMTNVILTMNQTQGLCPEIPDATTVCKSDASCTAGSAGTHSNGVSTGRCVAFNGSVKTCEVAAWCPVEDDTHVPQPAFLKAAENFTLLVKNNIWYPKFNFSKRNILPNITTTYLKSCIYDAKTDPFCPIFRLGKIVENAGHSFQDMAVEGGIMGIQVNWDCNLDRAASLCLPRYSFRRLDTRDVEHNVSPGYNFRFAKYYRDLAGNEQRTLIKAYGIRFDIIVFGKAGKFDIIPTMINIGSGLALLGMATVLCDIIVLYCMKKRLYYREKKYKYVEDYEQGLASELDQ


Assays:
mouse P2X7 [1] = target: T1, mouse P2X7; experiment: flow cytometry, periplasmic extract pre-incubated with anti-myc-FITC, on mP2X7-Hek293 cells;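 further: periplasmic extract diluted 10-fold and premixed 45 min at 4 °C with FITC anti-myc antibody, giving pseudo-bivalent Nanobodies, before binding to the cells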
Procedure: Ten-fold diluted PE were pre-incubation with 0.5 μg anti-myc FITC-conjugated antibodies (AbD Serotec, cat no. MCA2200F) (creating pseudo-bivalent Nanobodies in order to increase binding strength) in 0.1 ml PBS/10% FCS for 45 minutes at 4° C. […] Alternatively, sequential staining of 10-fold diluted PE with anti-myc FITC-conjugated antibodies was done after incubation with the cells.

mouse P2X7 [2] = target: T1, mouse P2X7; experiment: phage ELISA, mP2X7-CHO vs control CHO cells
Procedure: (§1) Sub-confluent cells were rinsed with PBS and fixed using 4% paraformaldehyde in PBS for 10 minutes at RT. Fixed cells were washed three times with PBS, and blocked with 2% BSA in PBS for 2 hours. Following blocking, 10-fold diluted culture supernatant containing phage was added and incubated for 1 hour. Cell-bound phage was detected via mouse anti-M13-HRP-conjugate (GE Healthcare, Cat nr. E2886). Rat mAb Hano43 was used as positive control.

human P2X7 = target: T2, human P2X7; experiment: flow cytometry, Nanobody pre-incubated with anti-Myc-FITC
human P2X4 = target: T3, human P2X4; experiment: as above
mouse P2X7 [3] = target: T1, mouse P2X7; experiment: phage ELISA on fixed mP2X7-CHO vs untransfected CHO cells;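 further: phage culture supernatant diluted 10-fold, applied for 1 h to paraformaldehyde-fixed, BSA-blocked cells in 96-well plates, with bound phage read via HRP-linked anti-M13 antibody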
Procedure: as §1

Binder	MFI FACS (pre-Myc incubation) (mouse P2X7 [1])	absorption ratio (ELISA) (mouse P2X7 [2])	binding result (human P2X7)	binding result (human P2X4)	Fold Cho P2X7/wt (phage ELISA) (mouse P2X7 [3])
P2X7PMP6A11 (VHH, family 5, 2; on phage or c-myc/His6-tagged in assays) VHH: EVQLVESGGGLVQAGGSLRLSCAASGNFFRVNTMAWYRQAPGKQRELVADITRGDRTNYADTVNGRFTISRDNVRNTVYLQMNGLKPEDTAAYYCYARIELGVLEPRDYWGQGTQVTVSS	53 MFI	17 ratio	–	–	–
P2X7PMP8B12 (VHH, family 5, 3; on phage or c-myc/His6-tagged in assays) VHH: EVQLVESGGGLVQAGGSLRLSCAASGSFFRVNVMAWYRQGPGKQRELVADITRGDRTNYADSVNGRFTISRDNVRNTVYLQMNGLKPEDTAVYYCYATIELGVLEPRDYWGQGTQVTVSS	93 MFI	38 ratio	–	–	–
P2X7PMP8H5 (VHH, family 5, 2; on phage or c-myc/His6-tagged in assays) VHH: EMQLVESGGGLVQAGGSLRLSCAASGNFFRVNTMAWYRQAPGKQRELVADITRGDRTNYADTVNGRFTISRDNVRNTVYLQMNGLKPEDTAAYYCYARIELGVLEPRDYWGQGTQVTVSS	24 MFI	12 ratio	–	–	–
P2X7PMP8B4 (VHH, family 5, 2; on phage or c-myc/His6-tagged in assays) VHH: EVQLVESGGGLVQAGGSLRLSCAASGNFFRVNTMAWYRQAPGKQRELVADITRGDRTNYADTVNGRFTISRDNVRNTVYLQMNSLKPEDTAAYYCYARIELGVLEPRDYWGQGTQVTVSS	71 MFI	13 ratio	–	–	–
P2X7PMP8A11 (VHH, family 5, 2; on phage or c-myc/His6-tagged in assays) VHH: EVQLVESGGGLVQAGGSLRLSCAASGSFFRVNNMAWYRQAPGKQRELVADITRGDRTNYADSVNGRFTISRDNVRNTVYLQMDGLKPEDTAVYYCYARIELGVLVPRDYWGQGTQVTVSS	17 MFI	11 ratio	–	–	–
P2X7PMP8E6 (VHH, family 5, 2; on phage or c-myc/His6-tagged in assays) VHH: EVQLVESGGGLVQAGGPLRLSCAASGNFFRVNTMAWYRQAPGKQRELVADITRGDRTNYADTVNGRFTISRDNVRNTVYLQMNGLKPEDTAAYYCYARIELGVLEPRDYWGQGTQVTVSS	69 MFI	12 ratio	–	–	–
P2X7PMP8H10 (VHH, family 5, 3; on phage or c-myc/His6-tagged in assays) VHH: EVQLVESGGGLVQAGGSLRLSCAASGSFFRVNNMAWYRQGPGKQRELVADITRGDRTNYADSVNGRFTISRDNVRNTVYLQMNGLKPEDTAVYYCYATIELGVLEPRDYWGQGTQVTVSS	94 MFI	19 ratio	–	–	–
P2X7PMP8H6 (VHH, family 5, 2; on phage or c-myc/His6-tagged in assays) VHH: EVQLVESGGGLVQAGGSLRLSCAASGSFFRVNNMAWYRQAPGKQRELVADITRGDRTNYADSVNGRFTISRDNVRNTVYLQMNGLKPEDTAVYYCYARIELGPLVPRDYWGQGTQVTVSS	43 MFI	17 ratio	–	–	–
P2X7PMP8D10 (VHH, family 5, 3; on phage or c-myc/His6-tagged in assays) VHH: EVQLVESGGGLVQPGGSLRLSCAASGSFFRVNNMAWYRQAPGKQRELVADITRGDRTNYADSVNGRFTISRDNVRNTVYLQMNGLKPEDTAVYYCYATIELGVLEPRDYWGQGTQVTVSS	94 MFI	18 ratio	–	–	–
P2X7PMP8H4 (VHH, family 5, 3; on phage or c-myc/His6-tagged in assays) VHH: EVQLVESGGGLVQAGGSLRLSCAASGSFFRVNNMAWYRQGPGKQRELVADITRGDRTNYADSVNGRFTISRDNVRNTVYLQMDGLKPEDTAVYYCYATIELGVLVPRDYWGQGTQVTVSS	65 MFI	27 ratio	–	–	–
P2X7PMP8C12 (VHH, family 5, 3; on phage or c-myc/His6-tagged in assays) VHH: EVQLVESGGGLVQAGGSLRLSCAASGSFFRVNNMAWYRQAPGKQRELVADITRGDRTNYADSVNGRFTISRDNVRNTVYLQMNGLKPEDTAVYYCYATIELGVLEPRDYWGQGTQVTVSS	89 MFI	28 ratio	–	–	–
P2X7PMP1A8 (VHH, family 2; on phage or c-myc/His6-tagged in assays) VHH: EVQLVESGGGLVQTGGSLRLSCAASGFTLDDYAIAWFRQAPGKEREGVSILSSIGKTFYADSVKDRFSITADGAKTTVFLQMNSLKPGDTAIYYCVAGHFVYNDGAISLNTARGSGFWGQGAQVTVSS	18 MFI	21 ratio	no binding (tested: 147 nM)	no binding (tested: 147 nM)	20 fold
P2X7PMP1C9 (VHH, family 2; on phage or c-myc/His6-tagged in assays) VHH: EVQLVESGGGLVQTGGSLRLSCAASGFTLDDYAIAWFRQAPGKEREGVSILSSIGKTFYADSVKDRFSITADGAKTTVFLQMNSLKPEDTAIYYCVAGHFVYNDGAISLNTARGSGFWGQGAQVTVSS	19 MFI	6 ratio	–	–	–
P2X7PMP20C9 (VHH, family 2; on phage or c-myc/His6-tagged in assays) VHH: EVQLVESGGGLVQTGGSLRLSCAASGFTLDDYAIAWFRQAPGKEREGVSILSSIGKTFYADSAKDRFSITADGAKTTVFLQMNSLKPEDTAIYYCVAGHFVYNDGAISLNTARGSGFWGQGTQVTVSS	97 MFI	11 ratio	no binding (tested: 147 nM)	no binding (tested: 147 nM)	11 fold
P2X7PMP20B10 (VHH, family 2; on phage or c-myc/His6-tagged in assays) VHH: EVQLVESGGGLVQTGGSLRLSCAASGFTLDDYAIAWFRQAPGKEREGVSILSSIGKTFYADSVKDRFSITADGAKTTVFLQMNSLKPEDTAIYYCVAGHFVYNDGAISLNTARGSGFWGQGTQVTVSS	85 MFI	8 ratio	–	–	–
P2X7PMP18C1 (VHH, family 25; on phage or c-myc/His6-tagged in assays) VHH: EVQLVESGGDLVQPGGSLRLSCVASGFALEEHAIGWFRQAPGKEREGVSLSSYLGAAYYATSVKGRFTISRDNAKNTVTLQMNSLKPEDTAVYYCARGHFTYDDGRITIRSVDYWGKGTLVTVSS	63 MFI	18 ratio	no binding (tested: 147 nM)	no binding (tested: 147 nM)	18 fold
P2X7PMP1G6 (VHH, family 15; on phage or c-myc/His6-tagged in assays) VHH: EVQLVESGGGLVQAGGSLRLSCAASPGAFSSFNMGWFRQTPGKEREFVAATSWSDISTYYADSVKGRFTISRDNAKNTVTLEMNSLKPEDTAVYYCAAGYYRGGYLGYRLTLEGSYDVWGQGTQVTVSS	11 MFI	12 ratio	no binding (tested: 147 nM)	no binding (tested: 147 nM)	12 fold
P2X7PMP16D9 (VHH, family 15; on phage or c-myc/His6-tagged in assays) VHH: EVQLVESGGGLVQAGGSLRLSCAASPGTFSSFNMGWFRQTPGKEREFVAATSWSDISTYYADSVKGRFTISRDNAKNTVTLEMNSLKPEDTAVYYCAAGYYRGGYLGYRLTLEGSYDVWGQGTQVTVSS	53 MFI	7 ratio	no binding (tested: 147 nM)	no binding (tested: 147 nM)	7 fold
